From publication PMC5691136 (2017)

Biological target: PS372424 (CXCR3 agonist)

Kd: 40 nM
B1: CXCR3-A expressed from pEGFPN2 in HEK-293 cells (HEK-CXCR3-A) (receptor)
chain: MVLEVSDHQVLNDAEVAALLENFSSSYDYGENESDSCCTSPPCPQDFSLNFDRAFLPALYSLLFLLGLLGNGAVAAVLLSRRTALSSTDTFLLHLAVADTLLVLTLPLWAVDAAVQWVFGSGLCKVAGALFNINFYAGALLLACISFDRYLNIVHATQLYRRGPPARVTLTCLAVWGLCLLFALPDFIFLSAHHDERLNATHCQYNFPQVGRTALRVLQLVAGFLLPLLVMAYCYAHILAVLLVSRGQRRLRAMRLVVVVVVAFALCWTPYHLVVLVDILMDLGALARNCGRESRVDVAKSVTSGLGYMHCCLNPLLYAFVGVKFRERMWMLLLRLGCPNQRGLQRQPSSSRRDSSWSETSEASYSGL
